From patent US20200323888A1, “INHIBITORS” (VESTLANDETS INNOVASJONSSELSKAP AS, priority 2017, published 2020) come the findings set out here.

Primed or numbered codes have the meaning given here. Ac′ = acetamide linker; CoA = coenzyme A

The target in one test is T1, Naa80 (Homo sapiens, UniProt Q93015).
T1 construct: The PCR product containing the CDS was inserted into the TOPO TA vector; made in house; host or cells: E. coli BL21 Star (DE3)
T1 sequence (Q93015 1-308 isoform Q93015-2): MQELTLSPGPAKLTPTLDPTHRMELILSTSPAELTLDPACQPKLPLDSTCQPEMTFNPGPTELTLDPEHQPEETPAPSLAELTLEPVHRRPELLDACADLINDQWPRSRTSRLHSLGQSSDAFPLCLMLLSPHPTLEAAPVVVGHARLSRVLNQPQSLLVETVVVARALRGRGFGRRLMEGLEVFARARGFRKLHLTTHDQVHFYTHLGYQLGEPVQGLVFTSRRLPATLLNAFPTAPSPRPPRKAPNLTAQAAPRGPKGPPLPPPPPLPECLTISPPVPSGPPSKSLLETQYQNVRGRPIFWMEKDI
As to the kind of experiment: Naa80 substrate screening assay (peptide acetylation by purified Naa80). Format: biochemical. Conditions: Naa80 mediated acetylation of 24-mer peptide substrates. The text has this: In order to investigate the in vitro activity of Naa80 further, an enzyme activity screening assay on purified Naa80 was undertaken using a broad substrate library (including amino acids, nucleosides, coenzymes, amines, saccharides, vitamins, antioxidants and peptides) modified from Kuhn et al. (Kuhn et al. (2013) “Broad-substrate screen as a tool to identify substrates for bacterial Gcn5-related N-acetyltransferases with unknown substrate specificity”. Protein Science 22(2):222-230). Among all of the potential substrates tested, only the peptides with N-terminal sequence of MDEL24 (SEQ ID NO: 45), DDDI24 (SEQ ID NO: 41) and EEEI24 (SEQ ID NO: 40) were acetylated, as shown in the following table:
The 24-mer substrate peptides differed in their 7 N-terminal amino acids while the 17 C-terminal residues (RWGRPVGRRRRPVRVYP, SEQ ID NO: 39) were kept constant: EEEI24 (EEEIAAL, SEQ ID NO: 40), DDDI24 (DDDIAAL, SEQ ID NO: 41), MDDD24 (MDDDIAA, SEQ ID NO: 42), SESS24 (SESSSKS, SEQ ID NO: 43), AVFA24 (AVFADLD, SEQ ID NO: 44), MDEL24 (MDELFPL, SEQ ID NO: 45), MELL24 (MELLSPP, SEQ ID NO: 46), MLGT24 (MLGTGPA, SEQ ID NO: 47), MTNK24 (MTNKSSL, SEQ ID NO: 48), MLGP24 (MLGPEGG, SEQ ID NO: 49), MAPL24 (MAPLDLD, SEQ ID NO: 50), MKKS24 (MKKSYSG, SEQ ID NO: 51).
Both MDEL (p65, SEQ ID NO: 8) and MDDD24 (unprocessed β-actin, SEQ ID NO: 42) represent cellular NatB substrates.
Turning to “MTNK24: 24-mer substrate peptide: N-terminal MTNKSSL (SEQ ID NO: 48) plus constant RWGRPVGRRRRPVRVYP (MTNKSSLRWGRPVGRRRRPVRVYP)”, the Product formation is given as −4.25 (±1.75) μM.
As for “AVFA24: 24-mer substrate peptide: N-terminal AVFADLD (SEQ ID NO: 44) plus constant RWGRPVGRRRRPVRVYP (AVFADLDRWGRPVGRRRRPVRVYP)”, the Product formation is −0.96 (±0.84) μM.
Still for that read-out and setting: with “MAPL24: 24-mer substrate peptide: N-terminal MAPLDLD (SEQ ID NO: 50) plus constant RWGRPVGRRRRPVRVYP (MAPLDLDRWGRPVGRRRRPVRVYP)” the figure was 2.28 (±0.61) μM; with “SESS24: 24-mer substrate peptide: N-terminal SESSSKS (SEQ ID NO: 43) plus constant RWGRPVGRRRRPVRVYP (SESSSKSRWGRPVGRRRRPVRVYP)”, 1.14 (±3.35) μM; with “MKKS24: 24-mer substrate peptide: N-terminal MKKSYSG (SEQ ID NO: 51) plus constant RWGRPVGRRRRPVRVYP (MKKSYSGRWGRPVGRRRRPVRVYP)”, 3.37 (±1.71) μM.
As to “EEEI24: 24-mer substrate peptide: N-terminal EEEIAAL (SEQ ID NO: 40) plus constant RWGRPVGRRRRPVRVYP (EEEIAALRWGRPVGRRRRPVRVYP)”, the Product formation is reported as 42.4 (±0.95) μM.
Still for that read-out and setting: for “MLGP24: 24-mer substrate peptide: N-terminal MLGPEGG (SEQ ID NO: 49) plus constant RWGRPVGRRRRPVRVYP (MLGPEGGRWGRPVGRRRRPVRVYP)” the value was 2.06 (±1.49) μM; for “DDDI24: 24-mer substrate peptide: N-terminal DDDIAAL (SEQ ID NO: 41) plus constant RWGRPVGRRRRPVRVYP (DDDIAALRWGRPVGRRRRPVRVYP)”, 50.5 (±1.0) μM.
Still for that read-out and setting: with “MELL24: 24-mer substrate peptide: N-terminal MELLSPP (SEQ ID NO: 46) plus constant RWGRPVGRRRRPVRVYP (MELLSPPRWGRPVGRRRRPVRVYP)” the figure was 2.15 (±0.40) μM.

A further test has as its target T1, Naa80. The test is described as follows: Nt-acetylation inhibitor assay for Naa80. To be noted: Naa80. The class given is biochemical. The method, then:
FIG. 10: (A) IC50 values for inhibitors measured in an Nt-acetylation inhibitor assay for Naa80. (B) Ki-values for CoA-Ac-DDDI-NH2 (SEQ ID NO: 6) for different human NATs measured in an Nt-acetylation inhibitor assay. All reactions were performed at least three times and in triplicate; errors bars represent standard deviation of each measurement.
The IC50 values for these compounds were tested as described in Foyn H, et al. (2013) “Design, Synthesis, and Kinetic Characterization of Protein N-Terminal Acetyltransferase Inhibitors”. ACS Chem Biol 8:1121-1127; and Foyn H, et al. (2017) “DTNB-Based quantification of in vitro enzymatic N-terminal acetyltransferase activity”, Methods Mol. Biol. 1574:9-15. Briefly, a colorimetric acetylation assay, 5,5′-dithiobis-(2-nitrobenzoic acid) (DTNB) assay was used to measure the catalytic activity of NATs after incubation with NAT inhibitors. In the DTNB assay, thiols present in the enzymatic product, CoA, cleaves DTNB and produces 2-nitro-5-thiobenzoate (NTB-), which absorbs light with a wavelength of 412 nm. NTB- forms in a 1:1 molar ratio to the thiol groups present in the sample. Therefore, NTB- was quantified by measuring the absorbance at 412 nm and indirectly measures peptide Nt-acetylation. […] After 30 min-60 min incubation at 37° C., the enzyme activity was quenched with quenching buffer (3.2 M guanidinium-HCl, 100 mM sodium phosphate dibasic pH 6.8). Triplicates were run for all positive samples, while negative controls were duplicated. As a negative control, reactions without enzyme were incubated at 37° C. before the reaction was quenched and added enzyme. In order to measure CoA production, 2 mM DTNB (dissolved in 100 mM sodium phosphate dibasic pH 6.8 and 10 mM EDTA) was added to the quenched reaction and the absorbance at 412 nm was measured with a spectrophotometer (Epoc). Background absorbance (determined in negative controls) was subtracted from the absorbance determined in each individual reaction. Thiophenolate production was quantified assuming ε=13.7×103 M−1 cm−1. For NatA and NatB enzyme complex inhibition, immunoprecipitation was performed using Naa15 ab (custom made, Arnesen T, Anderson D, Baldersheim C, Lanotte M, Varhaug J E, Lillehaug J R. (2005) Identification and characterization of the human ARD1-NATH protein acetyltransferase complex. Biochemical J 386(Pt 3):433-43.) or Naa20 ab (Nat5, abnova) respectively and protein A/G magnetic agarose beads (Millipore). A similar Nt-acetylation reaction was performed as previously described and the enzymatic activity was quenched with a final concentration of 1% TFA and analyzed by HPLC (Evjenth R, Van Damme P, Gevaert K, Arnesen T (2013) HPLC-based Quantification of in vitro N-terminal Acetylation. Methods Mol Biol 981:95-102.).
We then pursued Naa80 bisubstrate analogue inhibitors based on the results of the substrate screening and the sequences of the cellular substrates processed β- and γ-actin. We synthesized bisubstrate conjugates of Coenzyme A coupled to the tetrapeptides MDEL-NH2 (SEQ ID NO: 8), DDDI-NH2 (SEQ ID NO: 6), EEEI-NH2 (SEQ
ID NO: 7), and MLGT-NH2 (SEQ ID NO: 52) via an acetamide (Ac) linker.
The following additional Naa80 bisubstrate analogue inhibitors were produced and tested as described above: […]
`CC(C)C[C@H](NC(=O)[C@H](CCC(=O)O)NC(=O)[C@H](CCC(=O)O)NC(=O)[C@H](CCC(=O)O)NC(=O)CSCCNC(=O)CCNC(=O)C(O)C(C)(C)COP(=O)(O)OP(=O)(O)OCC1OC(n2cnc3c(N)ncnc32)C(O)C1OP(=O)(O)O)C(N)=O` (some centres unmarked) [EEEL] yielded an IC50 of 1160 nM.

Staying with this test, now noted: at the highest concentration tested of 1000 μM.
As to CoA-Ac-MLGT-NH2 ({CoA-Ac′}-MLGT-NH2), the “inhibition of Naa80” value was “did not show detectable inhibition”.
